We go through 1 molecule from US20240294624A1, “ANTI-ERYTHROPOIETIN ANTIBODY” (ANDREMACON S.R.L., priority 2021, published 2024).

Data set [1] in a line: Plasma pharmacokinetics by SPR after single i.v. injection. The class given is in vivo. Conditions: mice with glioblastoma xenograft, single i.v. 10 mg/kg. The method, then:
The ligands hEPO and BSA (Sigma-Aldrich, Italy, used as reference) were immobilized using amine-coupling chemistry on parallel channels of a CMD700L (Xantec GmbH) sensor chip. Briefly, surface was activated with sulfo NHS/EDC according to manufacturer's recommendation; hEPO and BSA were diluted at a concentration of 400 and 30 μg/mL in acetate buffer, pH 4.0 and 4.5, respectively. These solutions were flowed for 5 min at a rate of 30 μL/min over the activated chip surface. The remaining activated groups were blocked with ethanolamine, pH 8.0.
The analyte solutions (e.g. control plasma containing spiked anti-EPO (C4) antibody, or plasma/tissue samples from treated mice) were injected so that they flowed simultaneously on both immobilized hEPO and the reference surface. Dissociation was measured in the following 10 minutes. All of these assays were carried out at 25° C. […]
This method can thus allow to determine the plasma and tissue concentrations of antibody, on the basis of an appropriate calibration curve (FIG. 26A). The Lower Limit of Detection calculated was ˜0.5 μg/mL (˜3.3 nM), which corresponding to a LLD of 5 μg/mL in undiluted plasma.
The pharmacokinetic (PK) profile of anti-EPO (C4) was assessed after single i.v. injection in mice models for glioblastoma. In particular, the antibody concentrations were measured at different time points after treatment (from 6 hours to 1 week) in: […]
Background: Surface plasmon resonance follows binding to a sensor surface in real time, without labels.

For data set [2], the system named is primary anaplastic astrocytoma cells. The experiment in a line: MTT cell viability assay. The format is cell-based, human. Conditions: 96 hours, anti-EPO (C4) 6 μg/ml, TMZ 100 μM, FTY720 100 nM. The source says:
D. Primary anaplastic astrocytoma cancer stem cells isolated from tumor biopsy of a cohort of patients affected by high grade glioma, in particular, anaplastic astrocytoma (WHO, grade III);
On the technique in general: Tetrazolium dyes change colour on reduction, which living cells bring about.

The test system of the next data set is primary GECs. The experiment in a line: MTT cell viability assay. The format is cell-based, human. Conditions: 96 hours, anti-EPO (C4) 6 μg/ml, TMZ 100 μM, FTY720 100 nM. An excerpt: B. Primary glioblastoma endothelial cells (GECs).
For another data set, the system named is primary GSCs. The experiment in a line: MTT cell viability assay. The format is cell-based, human. Conditions: 96 hours, anti-EPO (C4) 6 μg/ml, TMZ 100 μM, FTY720 100 nM. The source says: A. Primary glioblastoma cancer stem cells (GCSc).
A further data set has as its system S1PR1. The experiment in a line: S1PR1 expression by immunofluorescence. The format is cell-based, human. Conditions: S-ECs of pathological synovium. How it is done:
ECs (1×10^4/well) were seeded into μ-Slide 8 Well, ibiTreat (Ibidi, Martinsried, Germany) collagen-coated. When cells reached the desired confluence, were fixed in paraformaldehyde 4% for 20 min at RT, washed twice with D-PBS and incubated with 0.1 M glycine to quench auto-fluorescence. Then, the coverslip was incubated with PBS+0.25% Triton ×100 to permeabilize cell membranes and then blocked in PBS+5% BSA for 30 min at RT. Incubation with anti-S1 PR1 primary antibody diluted in blocking buffer was performed overnight at 4° C. The following day, primary antibody was removed and fluorescent secondary antibody labelling was then added for 45 min at RT, protected from light, washed and finally, the coverlips were mounted with ProLong Gold Antifade Mountant (ThermoFisher). Immunolabeling was acquired using an inverted DM14 microscope equipped with DFC350×CCDcamera and LAS-X software (all from Leica Microsystems, Wetzlar, Germany). […] S1 PR1 levels are increased in pro-tumoral and pro-angiogenic conditions, when intracellular and extracellular levels of S1 P are presented. It is possible therefore to hypothesize the use of the anti-EPO (C4) antibody, such as in direct intra-articular treatment in the form of gel or suspension, in association or not with “coagulation factors and their derivatives” and also comprising FTY720 and negative modulators of the sphingosine-1-phosphate pathway.

The next data set concerns GBM-ECs. The experiment in a line: Tube formation assay on Matrigel. The format is cell-based, human. Particulars: 48 h. The method, then: GBM-ECs (1×10^4) were plated on 10 μL of Matrigel in BM, as a Control Condition (CTR, FIG. 8A) or in media containing the anti-EPO (C4) (FIG. 8B), TMZ (FIG. 8C), FTY720 (FIG. 8D), and anti-EPO (C4)+TMZ+FTY720 (FIG. 8E) treatments, as reported above. GBM-ECs were incubated at 37° C., 5% C02, 5% 02. After 48 h, tube-like structure formation was evaluated by phase-contrast microscopy.

B1: anti-EPO (C4): isolated anti-Erythropoietin monoclonal antibody, VL SEQ ID NO:6, VH SEQ ID NO:14, hybridoma DSM ACC 3370 (antibody, listed as Homo sapiens, V domains shown)
VH: EVKLQESGGGLVQPGGSLKLSCAASGFTFSTYTMSWVRQTPEKRLEWVAYISNGGDRTYYPDTVKGRFTISRDDAKNTLFLQMSSLKSEDTAMYYCARHNITTVPFTMDYWGQGTSVTVSS
VL: DIVLTQSPASLAVSLGQRATISCRASESVDYYGTGLMQWYQQRPGQPPKLLIYGASNVGSGVPARFSGSGSGTDFSLNIHPVEGDDIAMYFCQQTRKVPSTFGGGTKLEIK
modifications: VH amino acid sequence; VL amino acid sequence
As for B1, in data set [1], the half-time of elimination result was “about 4.4 days”. Besides, the “cells initially seeded dead” value in data set [2] was ~66%; in the data set on primary GECs, ~70%; in the data set with primary GSCs, “about 73%”. Also, the S1PR1 expression levels result in the data set with S1PR1 was “decreased expression levels of S1 PR1”. Also, the “decrease of total length of formed tubes” value with GBM-ECs stood at 70%. Moreover, the “formation of tubular-like structures” value in the data set on GBM-ECs (phase-contrast microscopy) is “able to block the formation of tubular-like structures”.
